In US20230212222A1 (ANYGEN CO., LTD., priority 2020, published 2023):
Square brackets hold non-standard residues; d marks the D form. Ends that are not written are not given here. Peptide text beside a SMILES is read from it. * marks the point of attachment. 1,3‑difluorobenzhydryl = His with a 1-((2,4-difluorophenyl)(phenyl)methyl) group on the imidazole (N1); dHis(Trt) = N[C@H](Cc1cn(C(c2ccccc2)(c2ccccc2)c2ccccc2)cn1)C(=O)O; 4‑methoxylbenzhydryl = COc1ccc(C(c2ccccc2)*)cc1; Biotin = O=C1N[C@H]2[C@H](CS[C@H]2CCCCC(=O)*)N1; His(τ-Bzl) = N[C@@H](Cc1cn(Cc2ccccc2)cn1)C(=O)O; 4‑chlorobenzhydryl = Clc1ccc(C(c2ccccc2)*)cc1; Fm = 9H-fluoren-9-yl, c1ccc2c(c1)-c1ccccc1C2*; Bip = N[C@@H](Cc1ccc(-c2ccccc2)cc1)C(=O)O; dPhe(4-Br) = N[C@H](Cc1ccc(Br)cc1)C(=O)O; dPhe(4-Cl) = N[C@H](Cc1ccc(Cl)cc1)C(=O)O; dPhe(4-Me) = Cc1ccc(C[C@@H](N)C(=O)O)cc1; Trt = c1ccc(C(c2ccccc2)(c2ccccc2)*)cc1; dPhe(4-F) = N[C@H](Cc1ccc(F)cc1)C(=O)O; Dmt = Cc1cc(O)cc(C)c1C[C@H](N)C(=O)O; Benzhydryl = c1ccc(C(c2ccccc2)*)cc1; Palmitoyl = CCCCCCCCCCCCCCCC(=O)*; Myristoyl = CCCCCCCCCCCCCC(=O)*; Lauroyl = CCCCCCCCCCCC(=O)*; Decanoyl = CCCCCCCCCC(=O)*; Octanoyl = CCCCCCCC(=O)*; SO3H = O=S(=O)(O)*; Bn = c1ccc(C*)cc1

The molecules below were run against T1, GPR39 (Homo sapiens, UniProt O43194) (assay: not given).
T1 sequence (O43194 1-453): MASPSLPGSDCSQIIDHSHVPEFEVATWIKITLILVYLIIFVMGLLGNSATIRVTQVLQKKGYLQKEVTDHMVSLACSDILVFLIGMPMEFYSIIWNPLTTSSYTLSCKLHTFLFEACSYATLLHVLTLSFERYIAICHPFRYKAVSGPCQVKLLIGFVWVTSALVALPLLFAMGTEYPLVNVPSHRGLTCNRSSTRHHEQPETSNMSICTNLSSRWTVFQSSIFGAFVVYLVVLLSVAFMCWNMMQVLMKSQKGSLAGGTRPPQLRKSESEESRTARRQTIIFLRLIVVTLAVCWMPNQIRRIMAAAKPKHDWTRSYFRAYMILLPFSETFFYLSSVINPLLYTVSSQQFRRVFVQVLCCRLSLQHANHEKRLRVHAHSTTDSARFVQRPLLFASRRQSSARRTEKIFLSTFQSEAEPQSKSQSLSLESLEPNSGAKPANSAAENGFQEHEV

Molecule | ECmax (-fold induction over basal)
CCCCCCCC(=O)NCCCC[C@H](NC(=O)[C@@H](N)Cc1cn(Cc2ccccc2)cn1)C(=O)N[C@@H](Cc1ccccc1)C(=O)N[C@@H](Cc1ccc(O)cc1)C(=O)O [HKFY-3, N2-(Nt-benzyl-L-histidyl)-N6-octanoyl-L-lysyl-L-phenylalanyl-L-tyrosine] (H-[His(τ-Bzl)]K(Octanoyl)FY-OH) | 9.2 ± 2.58 -fold induction over basal
CCCCCCCC(=O)NCCCC[C@H](NC(=O)[C@H](N)Cc1cn(C(c2ccccc2)(c2ccccc2)c2ccccc2)cn1)C(=O)N[C@@H](Cc1ccccc1)C(=O)N[C@@H](Cc1ccc(O)cc1)C(=O)O [HKFY-4, N6-octanoyl-N2-(Nt-trityl-D-histidyl)-L-lysyl-L-phenylalanyl-L-tyrosine] (H-[dHis(Trt)]K(Octanoyl)FY-OH) | 16.8 ± 1.87 -fold induction over basal

These molecules were tested against T2, GPR39 (G protein-coupled receptor 39) (Homo sapiens (Human), UniProt O43194 1-453) (assay: cell-based or functional assay).
T2 sequence: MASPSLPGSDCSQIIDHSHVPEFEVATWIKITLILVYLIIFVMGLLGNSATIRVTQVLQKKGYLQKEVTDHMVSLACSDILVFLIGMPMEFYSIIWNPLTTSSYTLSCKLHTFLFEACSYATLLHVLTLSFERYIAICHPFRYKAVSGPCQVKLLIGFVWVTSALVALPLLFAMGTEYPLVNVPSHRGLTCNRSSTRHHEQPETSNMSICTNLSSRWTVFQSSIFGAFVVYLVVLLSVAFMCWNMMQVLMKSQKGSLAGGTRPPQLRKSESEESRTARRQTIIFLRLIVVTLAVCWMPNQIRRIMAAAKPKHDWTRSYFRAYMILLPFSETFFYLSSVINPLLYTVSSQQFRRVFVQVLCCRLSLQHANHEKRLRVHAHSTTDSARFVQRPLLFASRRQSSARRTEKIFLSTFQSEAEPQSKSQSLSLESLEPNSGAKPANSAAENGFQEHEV

Molecule | EC50 (luciferase reporter) | ECmax (-fold induction over basal)
H(Benzhydryl)K(Octanoyl)FY [HKFY-33] | 150 nM | 20 -fold induction over basal
H(4‑methoxylbenzhydryl)K(Octanoyl)FY [HKFY-20] | 159000 nM | 20.3 -fold induction over basal
[dH](Trt)K(Octanoyl)[dPhe(4-Me)]Y [HKFY-31] | 20 nM | 20.9 -fold induction over basal
[dH](Trt)K(Octanoyl)FY [HKFY-4] | 130 nM | 16.8 -fold induction over basal
H(Fm)K(Octanoyl)FY [HKFY-18] | 2290 nM | 10 -fold induction over basal
H(Benzhydryl)K(Octanoyl)[dPhe(4-Me)][Dmt] [HKFY-36] | 150 nM | 9.9 -fold induction over basal
H(Trt)K(Octanoyl)FYSHQQARF (not fully specified; printed as His(trt)-Lys(caprylic)-Phe-Tyr-Ser-His-Gln-Gln-Ala-Arg-Phe) [HKFY-40] | 1300 nM | 13.4 -fold induction over basal
H(4‑methylbenzhydryl)K(Octanoyl)FY [HKFY-22] | 59800 nM | 21.3 -fold induction over basal
Biotin-H(Trt)K(Octanoyl)[Bip]Y [HKFY-45] | 140 nM | 21 -fold induction over basal
H(phenethyl)K(Octanoyl)FY [HKFY-19] | 24600 nM | 18 -fold induction over basal
H(Trt)K(Octanoyl)YF [HKFY-47] | 300 nM | 13 -fold induction over basal
H(4‑chlorobenzhydryl)K(Octanoyl)FY (not fully specified) [HKFY-21] | 136000 nM | 18.3 -fold induction over basal
H(3,3‑diphenylethyl)K(Octanoyl)FY [HKFY-17] | 8120 nM | 20 -fold induction over basal
H(Trt)K(Palmitoyl)FY [HKFY-27] | 560 nM | 20.4 -fold induction over basal
H(Trt)K(Decanoyl)FY [HKFY-24] | 240 nM | 7.03 -fold induction over basal
H(Trt)K(Octanoyl)[dPhe(4-Br)]Y [HKFY-29] | 310 nM | 26.8 -fold induction over basal
H(Trt)K(Octanoyl)FYW [HKFY-44] | 370 nM | 20 -fold induction over basal
H(Bn)K(Octanoyl)FY [HKFY-3] | 4130 nM | 9.2 -fold induction over basal

Molecule | EC50 (luciferase reporter) | ECmax (-fold induction over basal)
GSH(Trt)K(Octanoyl)FY [HKFY-37] | 1840 nM | 16 -fold induction over basal
H(Benzhydryl)K(Octanoyl)[dPhe(4-Me)]Y(SO3H) [HKFY-35] | 280 nM | 18.9 -fold induction over basal
H(Trt)K(Octanoyl)FW [HKFY-46] | 260 nM | 20 -fold induction over basal
His(Trt)-Lys(Octanoyl)-Phe [HKFY-49] | 320 nM | 18.3 -fold induction over basal
H(Trt)K(Octanoyl)FYHQQARF (not fully specified; printed as His(trt)-Lys(caprylic)-Phe-Tyr-His-Gln-Gln-Ala-Arg-Phe) [HKFY-42] | 1580 nM | 11.8 -fold induction over basal
H(adamantan‑1‑yl)K(Octanoyl)FY [HKFY-23] | 2600 nM | 15 -fold induction over basal
H(Trt)K(Octanoyl)FYSQNGARF (not fully specified; printed as His(trt)-Lys(caprylic)-Phe-Tyr-Ser-Gln-Asn-Gly-Ala-Arg-Phe) [HKFY-39] | – | 12.1 -fold induction over basal
H(Trt)K(Octanoyl)FYQNGARF [HKFY-41] | 9550 nM | 12.2 -fold induction over basal
H(Trt)K(Octanoyl)YY [HKFY-48] | 330 nM | 14.4 -fold induction over basal
H(Trt)K(Octanoyl)[dPhe(4-F)]Y [HKFY-28] | 74 nM | 22.9 -fold induction over basal
H(Trt)K(Octanoyl)FYSDQQARF (not fully specified; printed as His(trt)-Lys(caprylic)-Phe-Tyr-Ser-Asp-Gln-Gln-Ala-Arg-Phe) [HKFY-38] | 3500 nM | 16.5 -fold induction over basal
H(Trt)K(Myristoyl)FY [HKFY-26] | 280 nM | 19.8 -fold induction over basal
H(Trt)K(Octanoyl)[dPhe(4-Me)]Y [HKFY-30] | 8 nM | 23.9 -fold induction over basal
H(1,3‑difluorobenzhydryl)K(Octanoyl)[dPhe(4-Me)]Y [HKFY-32] | 2 nM | 21.5 -fold induction over basal
H(Trt)K(Octanoyl)FYQNQARF (not fully specified; printed as His(trt)-Lys(caprylic)-Phe-Tyr-Gln-Asn-Gln-Ala-Arg-Phe) [HKFY-43] | 1210 nM | 12.1 -fold induction over basal
H(Trt)K(Lauroyl)FY [HKFY-25] | 630 nM | 7.72 -fold induction over basal
H(Trt)[dK](Octanoyl)[dPhe(4-Cl)]Y [HKFY-16] | 240 nM | 27.9 -fold induction over basal
